Assay results taken from the RNAGym collection of RNA variant scans (doi:10.1073/pnas.2313332121).
Fewer inactive variants are shown than the library holds.

B1: TPR 5TU (parent)
chain: GGAUCUUCUCGAUCUAACAAAAAAGACAAAUCUGCCACAAAGCUUGAGAGCAUCUUCGGAUGCAGAGGCGGCAGCCUUCGGUGGCGCGAUAGCGCCAACGUUCUCAACUAUGACACGCAAAACGCGUGCUCCGUUGAAUGGAGUUUAUCAUG

Variants of: B1
Assay: polymerase ribozyme fitness, log enrichment relative to wild type (log ratio); higher = more active; in vitro selection for triplet polymerase activity
How it was run: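 Mutant libraries of both subunits of a heterodimeric triplet polymerase ribozyme were PCR-built, transcribed, and selected once in triplicate, with frozen incubation at −7 °C and capture of gel-excised extended constructs on streptavidin beads before RT-PCR. Illumina sequencing of input and output libraries was filtered to genotypes with ≥10 input reads and ≥1 read per output. Fitness is the logarithm of genotype enrichment over wild-type enrichment, using inverse-variance-weighted replicate averages. The logarithm is base 2.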

Row | Variant | polymerase ribozyme fitness (log ratio)
1 | GGAUCUUCUCGAUCUAACAAAAAAGACAAAUCUGCCACAAAGCUUGAGAGCAUCUUCGGAUGCAGAGGCGGCAGCCUUCGGUGGCGCGAUAGCGCCAACGUUCUCAACUAUGACGCGCAAAACCCGUGCUCGGUUGUAUGGAGUUUAUCAUG [A115G G124C C132G A137U] | ≤ -4.2
2 | GGAUCUUCUCGAUCUAACAAAAAAGACAAAUCUGCCACAAAGCUUGAGAGCAUCUUCGGAUGCAGAGGCGGCAGCCUUCGGUGGCGCGAUAGCGCCAACGUUCUCAACUAUGACUCGCAAAACGCGUGCUCCGUUAAAUGGAGUUUAUCAUG [A115U G136A] | -1.18
3 | GGAUCUUCUCGAUCUAACAAAAAAGACAAAUCUGCCACAAAGCUUGAGAGCAUCUUCGGAUGCAGAGGCGGCAGCCUUCGGUGGCGCGAUAGCGCCAACGUUCUCAACUAUGACACACAAAACGCGUGCUCCGUUGAAUGGAGUUUAUCAUG [G117A] | 0.231
4 | GGAUCUUCUCGAUCUAACAAAAAAGACAAAUCUGCCACAAAGCUUGAGAGCAUCUUCGGAUGCAGAGGCGGCAGCCUUCGGUGGCGCGAUAGCGCCAACGUUCUCAACUAUGACACUCAAAACGCGUGCUCCGUUGAAUGGAGUUUAUCAUG [G117U] | -0.0156
5 | GGAUCUUCUCGAUCUAACAAAAAAGACAAAUCUGCCACAAAGCUUGAGAGCAUCUUCGGAUGCAGAGGCGGCAGCCUUCGGUGGCGCGAUAGCGCCAACGUUCUCAACUAUGACACCCAAAACGCGUGCUCCGUUGAAUGGAGUUUAUCAUG [G117C] | 0.422
6 | GGAUCUUCUCGAUCUAACAAAAAAGACAAAUCUGCCACAAAGCUUGAGAGCAUCUUCGGAUGCAGAGGCGGCAGCCUUCGGUGGCGCGAUAGCGCCAACGUUCUCAACUAUGACCCGCAAAACUCGUGCUCCGUUGAAUGGAGGUUAUCAUG [A115C G124U U144G] | -3.11
7 | GGAUCUUCUCGAUCUAACAAAAAAGACAAAUCUGCCACAAAGCUUGAGAGCAUCUUCGGAUGCAGAGGCGGCAGCCUUCGGUGGCGCGAUAGCGCCAACGUUCUCAACUAUGACACGUUAAACGCGUGCUCCGUUGAAUGGAGUUUAUCAUG [C118U A119U] | -0.842
8 | GGAUCUUCUCGAUCUAACAAAAAAGACAAAUCUGCCACAAAGCUUGAGAGCAUCUUCGGAUGCAGAGGCGGCAGCCUUCGGUGGCGCGAUAGCGCCAACGUUCUCAACUAUGACACGUAAAACGCGUGCUCCGUUGAAUGGGGUUUACCAUG [C118U A142G U148C] | -2.86
9 | GGAUCUUCUCGAUCUAACAAAAAAGACAAAUCUGCCACAAAGCUUGAGAGCAUCUUCGGAUGCAGAGGCGGCAGCCUUCGGUGGCGCGAUAGCGCCAACGUUCUCAACUAUGACACUCAAAACGCGUGCUCCGUUGAAUGGAAUUUAUCAUG [G117U G143A] | -0.982
10 | GGAUCUUCUCGAUCUAACAAAAAAGACAAAUCUGCCACAAAGCUUGAGAGCAUCUUCGGAUGCAGAGGCGGCAGCCUUCGGUGGCGCGAUAGCGCCAACGUUCUCAACUAUGACACGCUAGACGCGUGCUCCGUCGAAUGGAGUUAAUCGUG [A119U A121G U135C U146A A150G] | -3.77
11 | GGAUCUUCUCGAUCUAACAAAAAAGACAAAUCUGCCACAAAGCUUGAGAGCAUCUUCGGAUGCAGAGGCGGCAGCCUUCGGUGGCGCGAUAGCGCCAACGUUCUCAACUAUGACAAGCAAAACGCGUGCUCCGUUGAAUGGCGUUUAUCAUG [C116A A142C] | -3.92
12 | GGAUCUUCUCGAUCUAACAAAAAAGACAAAUCUGCCACAAAGCUUGAGAGCAUCUUCGGAUGCAGAGGCGGCAGCCUUCGGUGGCGCGAUAGCGCCAACGUUCUCAACUAUGACACGAAAAACGCGUGCUCCGUUGAAUGGAGUUUAUCAUG [C118A] | -0.751
13 | GGAUCUUCUCGAUCUAACAAAAAAGACAAAUCUGCCACAAAGCUUGAGAGCAUCUUCGGAUGCAGAGGCGGCAGCCUUCGGUGGCGCGAUAGCGCCAACGUUCUCAACUAUGACACGUAAAACGCGUGCUCCGUUGAAUGGAGUUUAUCAUG [C118U] | -0.256
14 | GGAUCUUCUCGAUCUAACAAAAAAGACAAAUCUGCCACAAAGCUUGAGAGCAUCUUCGGAUGCAGAGGCGGCAGCCUUCGGUGGCGCGAUAGCGCCAACGUUCUCAACUAUGACACGGAAAACGCGUGCUCCGUUGAAUGGAGUUUAUCAUG [C118G] | -1.01
15 | GGAUCUUCUCGAUCUAACAAAAAAGACAAAUCUGCCACAAAGCUUGAGAGCAUCUUCGGAUGCAGAGGCGGCAGCCUUCGGUGGCGCGAUAGCGCCAACGUUCUCAACUAUGACAGGCAAAACCCGUGCUCCGUUGAAUGGAGUUUACCAUG [C116G G124C U148C] | ≤ -4.2
16 | GGAUCUUCUCGAUCUAACAAAAAAGACAAAUCUGCCACAAAGCUUGAGAGCAUCUUCGGAUGCAGAGGCGGCAGCCUUCGGUGGCGCGAUAGCGCCAACGUUCUCAACUAUGACGCGCAAAACGCGUGCUCCGUUGAAUGGAGUUAAUCAUG [A115G U146A] | -1.38
17 | GGAUCUUCUCGAUCUAACAAAAAAGACAAAUCUGCCACAAAGCUUGAGAGCAUCUUCGGAUGCAGAGGCGGCAGCCUUCGGUGGCGCGAUAGCGCCAACGUUCUCAACUAUGACACGGAAAACGCGUGCUCCGUUGAAUGGGGUUUAUCAUG [C118G A142G] | -1.54
18 | GGAUCUUCUCGAUCUAACAAAAAAGACAAAUCUGCCACAAAGCUUGAGAGCAUCUUCGGAUGCAGAGGCGGCAGCCUUCGGUGGCGCGAUAGCGCCAACGUUCUCAACUAUGACACGCUAAACGCGUGCUCCGUUGAAUUGAGUUUAUCAUG [A119U G140U] | -3.25
19 | GGAUCUUCUCGAUCUAACAAAAAAGACAAAUCUGCCACAAAGCUUGAGAGCAUCUUCGGAUGCAGAGGCGGCAGCCUUCGGUGGCGCGAUAGCGCCAACGUUCUCAACUAUGACAUGCAAAACGCGUGCUCCGUUGAAUGGAGUUUAUCACG [C116U U151C] | -4.04
